Experiments:
[1] = molecular target: collagen receptor on human platelets (human)
[2] = molecular target: thrombin
[3] = molecular target: collagen receptor on human platelets (human); remark: listed apart in the source
[4] = molecular target: collagen receptor (VL A 2) on MTLn3 cells (rat mammary tumor cells) (rat)
[5] = molecular target: collagen receptor on human platelets (human); remark: listed apart in the source
[6] = molecular target: collagen receptor (VL A 2) on MTLn3 cells (rat mammary tumor cells) (rat); remark: listed apart in the source
[7] = molecular target: collagen receptor on human platelets (human); remark: listed apart in the source

collagen-induced platelet aggregation inhibitor isolated from saliva of Triatoma pallidipennis
released ATP, % of total ATP content, of collagen-treated platelets (30 µl = 10 µg protein of "Superose"-pool; 49% without inhibitor) (% of total ATP content) [1]: 2 | maximal aggregation of filtrated platelets induced with thrombin (0.06 U/ml), with 200 µl "Superose"-pool (control 75%) (% maximal aggregation) [2]: 75 | adherent platelets per mm^2 on collagen type I (50 µl of "Superose"-pool at 0.5 mg protein/ml; 13500 without inhibitor) (adherent platelets per mm^2) [3]: 6500 | cell attachment (cpm) of 51Cr-labelled MTLn3 cells to collagen type III (10 µl of "Superose"-pool; 2215 cpm without inhibitor) [4]: 1080 cpm | IC50 of inhibition of collagen-induced platelet aggregation (highly purified protein) [5]: 50 nM | IC50 of inhibition of collagen-induced platelet aggregation (partially purified "Superose"-pool) [5]: 2.5 µg per ml | IC50 of adhesion-inhibition of metastatic tumor cells to collagen (highly purified protein) [6]: 100 nM | inhibition of collagen-induced aggregation of human platelets (platelet-rich plasma, aggregometer; "Superose"-pool) (% inhibition of aggregation) [7]: 70

Reference: patent publication US5756454
